Laboratory results taken from article PMC5358978, “Nuclear export receptor CRM1 recognizes diverse conformations in nuclear export signals” (eLife, 2017).

Molecular target: human CRM1 (HsCRM1), wild type (human) (UniProt O14980)
Experiment: differential bleaching; competition titration of MBP-NES to FITC-PKI NES and CRM1 with excess RanGTP; triplicate; fitted with a set of direct titrations

human CRM1 (HsCRM1), wild type (human), sequence (O14980 whole entry): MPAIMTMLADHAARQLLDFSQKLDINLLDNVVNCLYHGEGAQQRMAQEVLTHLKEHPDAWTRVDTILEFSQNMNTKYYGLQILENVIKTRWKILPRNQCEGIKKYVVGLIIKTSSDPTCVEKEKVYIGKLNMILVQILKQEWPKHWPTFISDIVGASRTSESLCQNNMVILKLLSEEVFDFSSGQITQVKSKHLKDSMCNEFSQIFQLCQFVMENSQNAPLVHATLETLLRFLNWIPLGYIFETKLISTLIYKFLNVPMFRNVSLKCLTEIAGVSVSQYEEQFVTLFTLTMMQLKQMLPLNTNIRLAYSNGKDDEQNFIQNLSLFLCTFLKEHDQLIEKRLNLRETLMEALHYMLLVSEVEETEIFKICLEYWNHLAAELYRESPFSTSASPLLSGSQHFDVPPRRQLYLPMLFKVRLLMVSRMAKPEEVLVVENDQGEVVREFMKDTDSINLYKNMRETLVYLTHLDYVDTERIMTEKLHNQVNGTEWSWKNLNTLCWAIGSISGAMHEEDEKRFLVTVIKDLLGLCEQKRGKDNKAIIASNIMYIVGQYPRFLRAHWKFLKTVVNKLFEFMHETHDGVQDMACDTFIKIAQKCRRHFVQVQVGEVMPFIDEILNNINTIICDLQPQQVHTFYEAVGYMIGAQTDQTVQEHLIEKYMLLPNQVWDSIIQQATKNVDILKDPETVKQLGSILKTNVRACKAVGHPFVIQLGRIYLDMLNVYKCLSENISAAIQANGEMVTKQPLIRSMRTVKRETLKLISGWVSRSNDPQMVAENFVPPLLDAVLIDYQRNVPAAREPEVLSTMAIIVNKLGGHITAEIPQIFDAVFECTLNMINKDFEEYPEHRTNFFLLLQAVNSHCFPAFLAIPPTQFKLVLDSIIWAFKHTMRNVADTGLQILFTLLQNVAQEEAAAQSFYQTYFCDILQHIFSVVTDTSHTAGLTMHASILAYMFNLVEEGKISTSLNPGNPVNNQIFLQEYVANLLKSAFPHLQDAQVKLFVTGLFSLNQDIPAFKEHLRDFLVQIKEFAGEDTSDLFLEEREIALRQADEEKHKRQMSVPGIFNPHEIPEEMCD

Substance: MBP-mDia2 NES(Φ0A) mutant (peptide)
- Kd: 9.1 µM
